# According to publication PMC3904167, “Replication interference between human papillomavirus types 16 and 18 mediated by heterologous E1 helicases” (Virology Journal, 2014):
# T1: Purified FLAG-tagged HPV18 E1 (human papillomavirus type 18, UniProt P06789 1-657)
# T1 construct: E1 helicase of human papillomavirus type 18; also called F18E1; source: Sf9 cells, recombinant baculovirus (pFastBac1), purified; not shown: FLAG, N-terminal, kept
# T1 sequence: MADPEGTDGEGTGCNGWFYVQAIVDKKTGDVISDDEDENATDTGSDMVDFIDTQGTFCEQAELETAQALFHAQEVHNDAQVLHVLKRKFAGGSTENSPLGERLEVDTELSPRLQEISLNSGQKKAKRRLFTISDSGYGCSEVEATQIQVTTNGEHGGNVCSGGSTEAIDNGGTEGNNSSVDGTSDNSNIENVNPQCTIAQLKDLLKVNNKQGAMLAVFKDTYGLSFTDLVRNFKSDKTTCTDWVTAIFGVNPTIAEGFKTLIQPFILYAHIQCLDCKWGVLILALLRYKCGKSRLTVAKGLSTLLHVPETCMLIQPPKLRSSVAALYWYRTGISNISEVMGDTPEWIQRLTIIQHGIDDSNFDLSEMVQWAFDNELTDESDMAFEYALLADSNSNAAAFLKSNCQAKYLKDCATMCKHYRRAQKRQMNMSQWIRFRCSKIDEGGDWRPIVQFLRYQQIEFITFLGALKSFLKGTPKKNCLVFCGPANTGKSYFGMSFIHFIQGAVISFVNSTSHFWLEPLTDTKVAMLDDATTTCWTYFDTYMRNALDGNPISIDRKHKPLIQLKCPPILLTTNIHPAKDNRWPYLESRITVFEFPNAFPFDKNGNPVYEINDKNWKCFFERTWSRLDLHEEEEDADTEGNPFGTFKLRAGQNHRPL
# B1: Purified 6xHis-tagged HPV16 E1 (enzyme)
# chain: MADPAGTNGEEGTGCNGWFYVEAVVEKKTGDAISDDENENDSDTGEDLVDFIVNDNDYLTQAETETAHALFTAQEAKQHRDAVQVLKRKYLVSPLSDISGCVDNNISPRLKAICIEKQSRAAKRRLFESEDSGYGNTEVETQQMLQVEGRHETETPCSQYSGGSGGGCSQYSSGSGGEGVSERHTICQTPLTNILNVLKTSNAKAAMLAKFKELYGVSFSELVRPFKSNKSTCCDWCIAAFGLTPSIADSIKTLLQQYCLYLHIQSLACSWGMVVLLLVRYKCGKNRETIEKLLSKLLCVSPMCMMIEPPKLRSTAAALYWYKTGISNISEVYGDTPEWIQRQTVLQHSFNDCTFELSQMVQWAYDNDIVDDSEIAYKYAQLADTNSNASAFLKSNSQAKIVKDCATMCRHYKRAEKKQMSMSQWIKYRCDRVDDGGDWKQIVMFLRYQGVEFMSFLTALKRFLQGIPKKNCILLYGAANTGKSLFGMSLMKFLQGSVICFVNSKSHFWLQPLADAKIGMLDDATVPCWNYIDDNLRNALDGNLVSMDVKHRPLVQLKCPPLLITSNINAGTDSRWPYLHNRLVVFTFPNEFPFDENGNPVYELNDKNWKSFFSRTWSRLSLHEDEDKENDGDSLPTFKCVSGQNTNTL
# notes: E1 helicase of human papillomavirus type 16; H16E1 gene cloned into pET-30; The pET-30 vector may add further vector-derived residues; also called H16E1; source: Escherichia coli BL21(DE3) pLysS (pET-30), purified
# Molecular target: T1, Purified FLAG-tagged HPV18 E1
# Test: co-IP; 1 ug purified H16E1 and 4 ug purified F18E1 in 200 ul binding buffer (20 mM Tris-HCl pH 8.0, 150 mM NaCl, 2 mM MgCl2, 0.01% NP-40); IP with anti-FLAG antibody and protein G magnetic beads, 1 h at 4°C; blot with anti-6xHis antibody
# Conditions: both partners purified
binder,measurement,value
B1,binding result,binds
